Measurements published in patent US6899878 (GENETICS INSTITUTE, dated 2005).
Ends that are not written are not given here.

T1: IL-1-R intracellular ligand protein encoded by clone 14w (interaction trap prey) (human, UniProt P17655 450-700)
T1 construct: Prey fusion expressed from pJG4-5 in yeast
T1 sequence: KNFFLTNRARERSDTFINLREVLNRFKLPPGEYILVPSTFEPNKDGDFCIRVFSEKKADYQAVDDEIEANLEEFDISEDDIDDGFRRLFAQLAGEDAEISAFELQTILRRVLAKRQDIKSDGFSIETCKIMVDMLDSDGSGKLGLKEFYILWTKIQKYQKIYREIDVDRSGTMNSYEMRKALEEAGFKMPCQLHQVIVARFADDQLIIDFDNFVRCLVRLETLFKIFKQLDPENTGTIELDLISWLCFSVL

T2: IL-1-R intracellular ligand protein encoded by clone 19w (interaction trap prey) (human, UniProt Q92626 1304-1479)
T2 construct: Prey fusion expressed from pJG4-5 in yeast; believed to be a partial clone of a longer protein
T2 sequence: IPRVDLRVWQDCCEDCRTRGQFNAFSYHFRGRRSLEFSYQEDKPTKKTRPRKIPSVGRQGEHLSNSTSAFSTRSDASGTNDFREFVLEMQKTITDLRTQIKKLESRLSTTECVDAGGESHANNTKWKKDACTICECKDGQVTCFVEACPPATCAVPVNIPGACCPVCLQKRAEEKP

B1: bicoid (unrelated bait) (other, UniProt P09081 2-160, looked up)
chain: AQPPPDQNFYHHPLPHTHTHPHPHSHPHPHSHPHPHHQHPQLQLPPQFRNPFDLLFDERTGAINYNYIRPYLPNQMPKPDVFPSEELPDSLVMRRPRRTRTTFTSSQIAELEQHFLQGRYLTAPRLADLSAKLALGTAQVKIWFKNRRRRHKIQSDQHK
B2: IL-1 receptor p80 (type I) amino acids 477 to 527, wild-type bait from plasmid EG202-IL1R (477-527) (receptor, human, UniProt P14778 494-544, looked up)
chain: QDYEKMPESIKFIKQKHGAIRWSGDFTQGPQSAKTRFWKNVRYHMPVQRRS
modifications: also: fused to LexA (pEG202 bait), residues not given here
notes: range 477-527; positions may be shifted against the UniProt entry; also called WT; original bait; not shown: LexA, fusion partner of baits made in vector pEG202
B3: IL-1 receptor p80 (477-527) mutant bait K515R (receptor)
chain: QDYEKMPESIKFIKQKHGAIRWSGDFTQGPQSAKTRFWRNVRYHMPVQRRS
modifications: also: fused to LexA (pEG202 bait), residues not given here

Legend:
[1] = target: T1, IL-1-R intracellular ligand protein …; test: yeast interaction trap, bait specificity test
Source text: (§1) A WI38 cDNA library was transformed into the reporter strain (EGY48/pSH18-34) containing the bait plasmid EG202-IL1R (477–527). 1.3 million primary transformants were harvested and 7 million colonies were screened. 192 galactose-dependent colonies were isolated. Among these, 51 clones were bait specific (i.e., interacted specifically with the original bait, but not with an unrelated bait, bicoid). These clones were then subjected to DNA sequence analysis. Clones 19w was isolated 6, times, clone 31w twice and clone 14w once.

[2] = target: T2, IL-1-R intracellular ligand protein …; test: yeast interaction trap, bait specificity test
Source text: as §1

[3] = target: T1, IL-1-R intracellular ligand protein …; test: yeast interaction trap, LacZ blueness on plates
Description: (§2) Mutations that abolish IL-1R signaling ere introduced into the original bait plasmid, EG202-IL-1R (477–527) (with following amino acid substitutions: F513A, W514A, K515R, R518K, and Y519S) and the ability of the IL-1R intracellular ligands to interact with these mutant proteins was tested in the interaction trap. EGY48 carrying pSH18-34 (lexAop-LacZ) were cotransformed with two plasmids: one carrying 14w, 19w or 31w; the other with bait, EG202-IL1R (477–527), either wild-type or one of the mutants, transformants were then streaked onto CM ura⁻his⁻trp⁻ plates containing galactose/raffinose and β-gal. The strength of interaction (as indicated by the number of "+" signs) was judged by the blueness in the plates (indicator of LacZ expression).

[4] = target: T2, IL-1-R intracellular ligand protein …; test: yeast interaction trap, LacZ blueness on plates
Description: as §2

[5] = target: B3; test: yeast interaction trap, LacZ blueness on plates
Description: as §2

[6] = target: B2; test: yeast interaction trap, LacZ blueness on plates
Description: as §2

bicoid (unrelated bait) = target: B1; test: yeast interaction trap, bait specificity test
Source text: as §1

Row | Binder | binding result [3] | binding result [4] | further results
1 | B1 |  |  | binding result [1]: no binding; binding result [2]: no binding
2 | B2 | binds | binds | 
3 | IL-1 receptor p80 (477-527) mutant bait R518K (receptor, human, UniProt P14778 494-544, looked up, also: fused to LexA (pEG202 bait), residues not given here, range 477-527; not shown: LexA, fusion partner of baits made in vector pEG202) QDYEKMPESIKFIKQKHGAIRWSGDFTQGPQSAKTRFWKNVKYHMPVQRRS | binds |  | 
4 | IL-1 receptor p80 (477-527) mutant bait Y519S (receptor, human, UniProt P14778 494-544, looked up, also: fused to LexA (pEG202 bait), residues not given here, range 477-527; not shown: LexA, fusion partner of baits made in vector pEG202) QDYEKMPESIKFIKQKHGAIRWSGDFTQGPQSAKTRFWKNVRSHMPVQRRS | binds |  | 
5 | B3 | binds | binds | 
6 | IL-1 receptor p80 (477-527) mutant bait W514A (receptor, human, UniProt P14778 494-544, looked up, also: fused to LexA (pEG202 bait), residues not given here, range 477-527; not shown: LexA, fusion partner of baits made in vector pEG202) QDYEKMPESIKFIKQKHGAIRWSGDFTQGPQSAKTRFAKNVRYHMPVQRRS | binds | binds | 
7 | IL-1-R intracellular ligand protein encoded by clone 31w (interaction trap prey) (other, not shown: large carriers, Prey fusion expressed from pJG4-5 in yeast; believed to be a partial clone of a longer protein) KKGGKTEQDGYQKPTNKHFTQSPKKSVADLLGSFEGKRRLLLITAPKAENNMYVQQRDEYLESFCKMATRKISVITIFGPVNNSTMKIDHFQLDNEKPMRVVDDEDLVDQRLISELRKEYGMTYNDFFMVLTDVDLRVKQYYEVPITMKSVFDLIDTFQSRIKDMEKQKKEGIVCKEEVGGVLELFPINGSSVVEREDVPAHLVKDIRNYFQVSPEYFSMLLVGKDGNVKSWYPSPMWSMVIVYDLIDSMQLRRQEMAIQQSLGMRCQKMSMQAMVTIVTTKDTRMVTRMTTVIMRVITMDTLTEQKYVTLDSASFLCSC |  |  | binding result [5]: binds; binding result [6]: binds; binding result (bicoid (unrelated bait)): no binding
